Biological target: HMG1 purified from calf (bovine) thymus (calf (bovine)) (UniProt P10103)
Assay: cell-based or functional assay

Sequence of HMG1 purified from calf (bovine) thymus (calf (bovine)) (P10103 2-215 limits assumed): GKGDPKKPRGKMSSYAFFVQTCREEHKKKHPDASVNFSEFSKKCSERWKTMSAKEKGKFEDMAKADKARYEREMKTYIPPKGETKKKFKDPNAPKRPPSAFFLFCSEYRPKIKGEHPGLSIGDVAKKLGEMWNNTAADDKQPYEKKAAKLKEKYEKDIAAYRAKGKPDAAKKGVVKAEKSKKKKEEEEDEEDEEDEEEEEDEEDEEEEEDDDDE

IFN-a release from mouse bone marrow cells treated with CpG-A and thymus HMG1: > 95%
Substance: RAGE-Fc fusion protein

Source: US20090169546A1
